# B1: Q5LBB1_BACFN (Bacteroides fragilis NCTC 9343) (protein)
# chain: MKSIEVVAAVIRLGEKYLCVQRGQTKFSYTSFRYEFPGGKVEEGESLQEALQREIMEEMDYVIEVGEKLLTVHHTYPDFEITMHAFLCHPVGQRYVLKEHIAAQWLSTREMAILDWAEADKPIVRKISEQ
# Experiments:
# Assay in all cases: purified protein
# Conditions in all cases: pH 7.6, 37 °C, 1 mM MgCl2, 10 mM Tris-HCl
# purified protein [1] = substrate: Cc1cn([C@H]2C[C@H](O)[C@@H](COP(=O)(O)OP(=O)(O)OP(=O)(O)O)O2)c(=O)nc1N
# Source text: (§1) Pi-sensor (MDCC-PBP) fluorescence, PPase coupled on Q5LBB1_BACFN
# purified protein [2] = substrate: Nc1nc(=O)n([C@H]2C[C@H](O)[C@@H](COP(=O)(O)OP(=O)(O)OP(=O)(O)O)O2)cc1O
# Source text: as §1
# purified protein [3] = substrate: Cc1cn([C@@H]2O[C@H](COP(=O)(O)OP(=O)(O)OP(=O)(O)O)[C@@H](O)[C@H]2O)c(=O)nc1N
# Source text: as §1
# purified protein [4] = substrate: Nc1nc(=O)n([C@H]2C[C@H](O)[C@@H](COP(=O)(O)OP(=O)(O)OP(=O)(O)O)O2)cc1CO
# Source text: as §1
protein,measurement,setting,value
B1,Km,purified protein [1],3.0 ± 0.8 µM
same,kcat,purified protein [1],14 ± 1 s⁻¹
same,kcat/Km,purified protein [1],4.8e+06 ± 1e+06 M⁻¹ s⁻¹
same,Km,purified protein [2],9.2 ± 2.8 µM
same,kcat,purified protein [2],0.78 ± 0.11 s⁻¹
same,kcat/Km,purified protein [2],85000 ± 14000 M⁻¹ s⁻¹
same,Km,purified protein [3],2.5 ± 1.2 µM
same,kcat,purified protein [3],16 ± 3 s⁻¹
same,kcat/Km,purified protein [3],6.7e+06 ± 2.4e+06 M⁻¹ s⁻¹
same,Km,purified protein [4],10 ± 5 µM
same,kcat,purified protein [4],45 ± 11 s⁻¹
same,kcat/Km,purified protein [4],4.4e+06 ± 1e+06 M⁻¹ s⁻¹

# — PMC5158307, “Substrate specificity characterization for eight putative nudix hydrolases. Evaluation of criteria for substrate identification within the Nudix family” (Proteins, 2016)
